# pKd: −log10 of the molar value.
# Target: human IgM (Calbiochem 401108) (human)
# Assay: SPR; IgM amine-coupled to a GLC sensor chip (about 10,000 RU, pH 5), ProteOn XP36; DBL4ζ proteins flowed at 600-18.75 nM, 25 μl/min, 25 °C, 10 mM Tris pH 7.4, 140 mM NaCl, 2 mM CaCl2, 0.005% Tween-20; 1:1 Langmuir kinetic model
Substance,pKd,koff,kon
"recombinant TM284var1 DBL4ζ E1663R (his-tagged, E. coli) (domain or fragment)",6.94,0.0148 s⁻¹,129000 M⁻¹ s⁻¹
"recombinant TM284var1 DBL4ζ E1663R, E1665R, R1764E, E1779K (his-tagged, E. coli) (domain or fragment)",7.39,0.00254 s⁻¹,61600 M⁻¹ s⁻¹
"recombinant TM284var1 DBL4ζ E1663R, R1764E (his-tagged, E. coli) (domain or fragment)",7.48,0.00159 s⁻¹,49400 M⁻¹ s⁻¹
"recombinant TM284var1 DBL4ζ R1764E (his-tagged, E. coli) (domain or fragment)",7.38,0.00189 s⁻¹,45100 M⁻¹ s⁻¹
"recombinant TM284var1 DBL4ζ wild type (his-tagged, E. coli) (domain or fragment)",7.18,0.0118 s⁻¹,179000 M⁻¹ s⁻¹

# Reference: paper PMC4539346
